Key:
[1] = Body weight reduction in C57BL/6 mice, daily subcutaneous dosing; type: in vivo; conditions: for Body weight reduction at 30 nmol/kg (% reduction compared to vehicle)(Day11): male C57BL/6 mice, 30 nmol/kg subcutaneously everyday, Day 11; for BW reduction compared to Semaglutide: 30 nmol/kg, 10-day dosing period (FIGS. 1A-1B)
Procedure: FIGS. 1A-1F show in vivo activities of fusion protein conjugates. […] Body weight was measured daily. […] Compared to Vehicle control: ***, p<0.001. All data are expressed as mean values and standard error (SEM).
10 week old male C57BL/6 mice were injected everyday subcutaneously with 30 nmol/kg exemplary fusion protein conjugates for 10 or 14 days (n=5). Body weight was daily monitored for each individual animal. Day 1 and Day 10 (or Day 14) are first day and last day of molecule dosage. % BW loss=100*(BW on Day n-BW on Day 1)/(BW on Day 1). Data are indicated as mean values and standard error (SEM) or pooled values. Statistical analysis was performed by One-way ANOVA. Body weight reduction on Day 11 in Table 5 is calculated by −1*(% BW loss−% BW loss of vehicle group).

[2] = Pharmacokinetic measurement in C57BL/6 mice, single subcutaneous dose, plasma ELISA; type: in vivo; conditions: for AUClast / Cmax / Terminal t1/2 / Tmax: single subcutaneous dose 30 nmol/kg, plasma
Procedure: Each fusion protein conjugate was injected subcutaneously into C57BL/6 mice (n=3/group) once and plasma samples were collected at designed timepoints and analyzed by ELISA method. Plasma concentrations are indicated as mean values and standard error (SEM).
6-8 week old male C57BL/6 mice were administrated in a single subcutaneous dose of 30 nmol/kg of the exemplary fusion protein conjugates (Compounds 4, 9, 10, 19, 63) or the non-acylated fusion protein (i.e., Compound 3, which has the amino acid sequence identical to Compound 2 but without any conjugation) (n=3/group). Plasma samples were collected pre-dose (−5 min), 0.5 hr, 1 hr, 2 hr, 4 hr, 6 hr, 8 hr, 12 hr and 24 hr hours after the injection. For Compound 3, plasma collection timepoints were −5 min, 0.25 h, 0.5 h, 1 h, 2 h, 4 h and 6 h. The concentrations of the fusion protein conjugates or the non-acylated fusion protein in the plasma were measured by an ELISA assay which has immunoreactivities towards both C-terminal FGF21 and intact N-terminal of GLP-1. Based on the graph showing plasma concentration of each protein versus time after subcutaneous injection, the pharmacokinetic parameters were calculated by WinNonlin.
Pharmacokinetic data were analyzed by WinNonlin software. Tmax, Cmax, T1/2, AUC and MRT were calculated for each molecule.

B1: Compound 71: GLP-1/FGF21 fusion polypeptide SEQ ID NO: 168 conjugated with Moiety B at 52C and 282C (conjugate)
chain: HGEGTFTSDVSSYLEEQAAKEFIAWLVKGGGGAQPGAQPGAQPGAQPGAQPCQAPGAQPGAQPGAQPGAQPGAQPGAQPGAQPGAQPGAQPGAQPGAQPGAQPGAQPGAQPHPIPDSSPLLQFGGQVRQRYLYTDDAQQTEAHLEIREDGTVGGAADQSPESLLQLKALKPGVIQILGVKTSRFLCQRPDGALYGSLHFDPEACSFRELLLEDGYNVYQSEAHGLPLHLPGQKSPHRDPAPRGPARFLPLPGLPPALPEPPGILAPQPPDVGSSDPLSLVGCSQGRSPSYES
modifications: Moiety B conjugated at C52 and C282
Body weight reduction at 30 nmol/kg (% reduction compared to vehicle)(Day11) [1]: 24.5%

B2: Compound 72: GLP-1/FGF21 fusion polypeptide SEQ ID NO: 169 conjugated with Moiety B at 62C and 282C (conjugate)
chain: HGEGTFTSDVSSYLEEQAAKEFIAWLVKGGGGAQPGAQPGAQPGAQPGAQPGAQPGAQPGQCPGAQPGAQPGAQPGAQPGAQPGAQPGAQPGAQPGAQPGAQPGAQPGAQPHPIPDSSPLLQFGGQVRQRYLYTDDAQQTEAHLEIREDGTVGGAADQSPESLLQLKALKPGVIQILGVKTSRFLCQRPDGALYGSLHFDPEACSFRELLLEDGYNVYQSEAHGLPLHLPGQKSPHRDPAPRGPARFLPLPGLPPALPEPPGILAPQPPDVGSSDPLSLVGCSQGRSPSYES
modifications: Moiety B conjugated at C62 and C282
Body weight reduction at 30 nmol/kg (% reduction compared to vehicle)(Day11) [1]: 25.8%

B3: Compound 73: GLP-1/FGF21 fusion polypeptide SEQ ID NO: 170 conjugated with Moiety B at 42C and 282C (conjugate)
chain: HGEGTFTSDVSSYLEEQAAKEFIAWLVKGGGGAQPGAQPGQCPGAQPGAQPGAQPGAQPGAQPGAQPGAQPGAQPGAQPGAQPGAQPGAQPGAQPGAQPGAQPGAQPGAQPHPIPDSSPLLQFGGQVRQRYLYTDDAQQTEAHLEIREDGTVGGAADQSPESLLQLKALKPGVIQILGVKTSRFLCQRPDGALYGSLHFDPEACSFRELLLEDGYNVYQSEAHGLPLHLPGQKSPHRDPAPRGPARFLPLPGLPPALPEPPGILAPQPPDVGSSDPLSLVGCSQGRSPSYES
modifications: Moiety B conjugated at C42 and C282
Body weight reduction at 30 nmol/kg (% reduction compared to vehicle)(Day11) [1]: 20.2%

B4: Compound 66: GLP-1/FGF21 fusion polypeptide SEQ ID NO: 163 conjugated with Moiety B at 51C and 225C (conjugate)
chain: HGEGTFTSDVSSYLEEQAAKEFIAWLVKGGGGSAPGSPAGSPTGSAPGSPCHPIPDSSPLLQFGGQVRQRYLYTDDAQQTEAHLEIREDGTVGGAADQSPESLLQLKALKPGVIQILGVKTSRFLCQRPDGALYGSLHFDPEACSFRELLLEDGYNVYQSEAHGLPLHLPGQKSPHRDPAPRGPARFLPLPGLPPALPEPPGILAPQPPDVGSSDPLSLVGGSQCRSPSYES
modifications: Moiety B conjugated at C51 and C225
Body weight reduction at 30 nmol/kg (% reduction compared to vehicle)(Day11) [1]: 18.9%

B5: Compound 4: GLP-1/FGF21 fusion polypeptide SEQ ID NO: 4 conjugated with Moiety A at 51K and 231K (conjugate)
chain: HGEGTFTSDVSSYLEEQAAREFIAWLVRGGGGGGGSGGGGSGGGGSGGGGKHPIPDSSPLLQFGGQVRQRYLYTDDAQQTEAHLEIREDGTVGGAADQSPESLLQLRALRPGVIQILGVRTSRFLCQRPDGALYGSLHFDPEACSFRELLLEDGYNVYQSEAHGLPLHLPGQRSPHRDPAPRGPARFLPLPGLPPALPEPPGILAPQPPDVGSSDPLSLVGGSQGRSPSYKS
modifications: Moiety A conjugated at K51 and K231
AUC compared to non-acylated fusion protein (Compound 3) ([2]; 30 nmol/kg subcutaneous): larger AUC | Half-lives of double acylated compared to monoacylated Compounds 9 and 10 ([2]; 30 nmol/kg subcutaneous): significantly prolonged half-lives | PK properties compared to Semaglutide ([2]; 30 nmol/kg subcutaneous): better PK properties | AUClast [2]: 1.0196 µM·h | Cmax [2]: 58.3 nM | Terminal t1/2 [2]: 19.7 h | Tmax [2]: 8 h | BW reduction compared to Semaglutide [1]: much more enhanced and persistent BW reduction | Body weight reduction at 30 nmol/kg (% reduction compared to vehicle)(Day11) [1]: 27.0%

B6: Compound 52: GLP-1/FGF21 fusion polypeptide SEQ ID NO: 149 conjugated with Moiety B at 51C and 225C (conjugate)
chain: HGEGTFTSDVSSYLEEQAAKEFIAWLVRGGGGGGGSGGGGSGGGGSGGGGCHPIPDSSPLLQFGGQVRQRYLYTDDAQQTEAHLEIREDGTVGGAADQSPESLLQLKALKPGVIQILGVKTSRFLCQRPDGALYGSLHFDPEACSFRELLLEDGYNVYQSEAHGLPLHLPGQKSPHRDPAPRGPARFLPLPGLPPALPEPPGILAPQPPDVGSSDPLSLVGGSQCRSPSYES
modifications: Moiety B conjugated at C51 and C225
Body weight reduction at 30 nmol/kg (% reduction compared to vehicle)(Day11) [1]: 20.9%

B7: Compound 9: GLP-1/FGF21 fusion polypeptide SEQ ID NO: 9 conjugated with Moiety A at 231K (conjugate)
chain: HGEGTFTSDVSSYLEEQAAREFIAWLVRGGGGGGGSGGGGSGGGGSGGGGSHPIPDSSPLLQFGGQVRQRYLYTDDAQQTEAHLEIREDGTVGGAADQSPESLLQLRALRPGVIQILGVRTSRFLCQRPDGALYGSLHFDPEACSFRELLLEDGYNVYQSEAHGLPLHLPGQRSPHRDPAPRGPARFLPLPGLPPALPEPPGILAPQPPDVGSSDPLSLVGGSQGRSPSYKS
modifications: Moiety A conjugated at K231
AUC compared to non-acylated fusion protein (Compound 3) ([2]; 30 nmol/kg subcutaneous): larger AUC | AUClast [2]: 0.7912 µM·h | Cmax [2]: 65.6 nM | Terminal t1/2 [2]: 3.5 h | Tmax [2]: 6 h | Body weight reduction at 30 nmol/kg (% reduction compared to vehicle)(Day11) [1]: 27.2%

B8: Compound 54: GLP-1/FGF21 fusion polypeptide SEQ ID NO: 151 conjugated with Moiety B at 51C and 231C (conjugate)
chain: HGEGTFTSDVSSYLEEQAAKEFIAWLVRGGGGGGGSGGGGSGGGGSGGGGCHPIPDSSPLLQFGGQVRQRYLYTDDAQQTEAHLEIREDGTVGGAADQSPESLLQLKALKPGVIQILGVKTSRFLCQRPDGALYGSLHFDPEACSFRELLLEDGYNVYQSEAHGLPLHLPGQKSPHRDPAPRGPARFLPLPGLPPALPEPPGILAPQPPDVGSSDPLSLVGGSQGRSPSYCS
modifications: Moiety B conjugated at C51 and C231
Body weight reduction at 30 nmol/kg (% reduction compared to vehicle)(Day11) [1]: 13.5%

B9: Compound 10: GLP-1/FGF21 fusion polypeptide SEQ ID NO: 10 conjugated with Moiety A at 222K (conjugate)
chain: HGEGTFTSDVSSYLEEQAAREFIAWLVRGGGGGGGSGGGGSGGGGSGGGGSHPIPDSSPLLQFGGQVRQRYLYTDDAQQTEAHLEIREDGTVGGAADQSPESLLQLRALRPGVIQILGVRTSRFLCQRPDGALYGSLHFDPEACSFRELLLEDGYNVYQSEAHGLPLHLPGQRSPHRDPAPRGPARFLPLPGLPPALPEPPGILAPQPPDVGSSDPLSLVGKSQGRSPSYES
modifications: Moiety A conjugated at K222
AUC compared to non-acylated fusion protein (Compound 3) ([2]; 30 nmol/kg subcutaneous): larger AUC | AUClast [2]: 0.4651 µM·h | Cmax [2]: 50.2 nM | Terminal t1/2 [2]: 1.9 h | Tmax [2]: 4 h | BW reduction compared to Semaglutide [1]: much more enhanced and persistent BW reduction | Body weight reduction at 30 nmol/kg (% reduction compared to vehicle)(Day11) [1]: 20.0%
